In paper PMC8074105, “Bacillus subtilis PcrA Helicase Removes Trafficking Barriers” (Cells, 2021):

Experiments:
PcrA [1] = molecular target: T1, PcrA (Bacillus subtilis, UniProt O34580 1-739); assay: EMSA; 2.5 mM ATPgS, 3 mM Mg2+; four complexes; 20 mM Tris-HCl pH 7.5, 50 mM NaCl, 3 mM MgCl2, 4 mM DTT, 0.05 mg/mL BSA, 5% glycerol, 2.5 mM ATPgS, 0.1 nM 32P-labelled nucleic acid, 15 min, 37 C; details: protein: recombinant; tags: His6 removed (TAGZyme); label: 32P
T1 sequence: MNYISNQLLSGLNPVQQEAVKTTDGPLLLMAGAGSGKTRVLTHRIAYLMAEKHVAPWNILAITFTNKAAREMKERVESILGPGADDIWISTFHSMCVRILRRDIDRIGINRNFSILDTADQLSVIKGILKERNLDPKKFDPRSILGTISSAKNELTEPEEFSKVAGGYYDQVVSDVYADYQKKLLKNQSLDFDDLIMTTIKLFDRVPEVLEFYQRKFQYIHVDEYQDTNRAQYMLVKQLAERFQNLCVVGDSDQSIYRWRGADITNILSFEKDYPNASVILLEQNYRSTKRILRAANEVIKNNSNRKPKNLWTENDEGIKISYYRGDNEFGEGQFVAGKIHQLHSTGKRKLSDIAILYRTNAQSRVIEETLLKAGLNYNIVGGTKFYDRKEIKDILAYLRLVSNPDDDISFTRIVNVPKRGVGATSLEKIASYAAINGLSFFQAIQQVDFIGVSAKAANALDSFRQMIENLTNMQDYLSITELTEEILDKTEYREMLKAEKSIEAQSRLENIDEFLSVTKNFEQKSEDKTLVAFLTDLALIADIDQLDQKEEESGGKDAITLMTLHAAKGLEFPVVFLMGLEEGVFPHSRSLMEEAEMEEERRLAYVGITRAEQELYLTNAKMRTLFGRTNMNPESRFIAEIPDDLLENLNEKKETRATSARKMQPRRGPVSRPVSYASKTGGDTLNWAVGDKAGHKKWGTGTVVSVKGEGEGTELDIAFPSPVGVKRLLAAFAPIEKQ

PcrA [2] = molecular target: T1, PcrA; assay: EMSA; 2.5 mM ATPgS, 3 mM Mg2+; apparent; unstable complexes; 20 mM Tris-HCl pH 7.5, 50 mM NaCl, 3 mM MgCl2, 4 mM DTT, 0.05 mg/mL BSA, 5% glycerol, 2.5 mM ATPgS, 0.1 nM 32P-labelled nucleic acid, 15 min, 37 C; details: protein: recombinant; tags: His6 removed (TAGZyme); label: 32P
[3] = substrate: Nc1ncnc2c1ncn2[C@@H]1O[C@H](COP(=O)(O)OP(=O)(O)OP(=O)(O)O)[C@@H](O)[C@H]1O; assay: NADH-coupled (pyruvate kinase / lactate dehydrogenase) spectrophotometric ATPase assay, Michaelis-Menten fit; type: biochemical, Bacillus subtilis; details: 15 nM PcrA, ATP 0.06 to 10 mM, ssDNA-dependent assay (circular pGEM3 Zf(+) ssDNA, 10 µM in nt, inferred from context), 10 mM Mg acetate, 80 mM NaCl, pH 7.5, 37 °C

B1: 38-nt ssDNA (SM44D) (ssDNA)
DNA: GCTCTGATGCCGCATAGTTAAGCCAGCCCCGACACCCG
binding result (PcrA [1]): binds

B2: 38-nt RNA (SM44R) (ssRNA)
RNA: GCUCUGAUGCCGCAUAGUUAAGCCAGCCCCGACACCCG
Kd (PcrA [2]): ~35 nM

B3: PcrA (Bacillus subtilis subsp. subtilis str. 168) (protein)
chain: T1 sequence
notes: full-length, His6-tagged from plasmid pCB1229 (pQE1) in E. coli M15 (pREP4), His-tag removed with TAGZyme; amounts as monomers
Km [3]: 1500 ± 300 µM
